How the values were obtained:
[1] = system: GPR103; conditions: cited from earlier work
Excerpt: GPR103 is a Gi/o- and Gq-coupled GPCR expressed in the adrenal gland and various regions of the brain such as the hypothalamus, which plays a crucial role in the regulation of energy metabolism and appetite control. […] In this study, we focused on the structural analysis complexed with Gq. To facilitate expression and purification, we truncated the C-terminal residues after G366 of human GPR103. […] (Supplementary Fig. 1a–d and Supplementary Table 1). […] The heptapeptide is conserved from fish to mammals, except for S23 (Supplementary Fig. 6a), consistent with the fact that the S23 side chain poorly interacts with the receptor. The receptor residues interacting with the heptapeptide are highly conserved among the homologs (Supplementary Fig. 6b, c). Accordingly, this observed heptapeptide-TMD interaction plays a key role in evolutionarily conserved GPR103 activation.

[2] = cited from earlier work
Excerpt: GPR103 is a Gi/o- and Gq-coupled GPCR expressed in the adrenal gland and various regions of the brain such as the hypothalamus, which plays a crucial role in the regulation of energy metabolism and appetite control. QRFP and GPR103 are implicated in a variety of physiological functions ranging from the modulation of feeding behavior to the regulation of energy homeostasis, cardiovascular function, and bone formation. ... || In the current study, we have not only elucidated the architecture of the receptor but also shed light on the structure of QRFP itself, potentially paving the way for the modulation of QRFP-neurons (Q-neurons)[46]. […] The QRFP-induced hibernation-like state (QIH) provides an unusual model to study metabolic suppression for therapeutic purposes, as well as artificial hibernation. QIH through pharmacogenetics[47] or optogenetics[48] is achievable in murine models, ...

[3] = target: GPR103 Q318^7.39A (human) (UniProt Q96P65)
[4] = target: GPR103 E203^ECL2A (human) (UniProt Q96P65)
[5] = target: GPR103 E297^6.59A (human) (UniProt Q96P65)
[6] = target: GPR103 Q125^3.32 mutant (human) (UniProt Q96P65)
[7] = target: GPR103 T102^2.61 mutant (human) (UniProt Q96P65)
[8] = target: GPR103 alanine mutant of F25^N-term (human) (UniProt Q96P65)
[9] = target: GPR103 alanine mutant of Y29^N-term (human) (UniProt Q96P65)
[10] = target: GPR103 alanine mutant of F11^N-term (human) (UniProt Q96P65)
[11] = target: GPR103 C98^2.57A (human) (UniProt Q96P65)
Sequence of GPR103 C98^2.57A (human) (Q96P65 whole entry C98A): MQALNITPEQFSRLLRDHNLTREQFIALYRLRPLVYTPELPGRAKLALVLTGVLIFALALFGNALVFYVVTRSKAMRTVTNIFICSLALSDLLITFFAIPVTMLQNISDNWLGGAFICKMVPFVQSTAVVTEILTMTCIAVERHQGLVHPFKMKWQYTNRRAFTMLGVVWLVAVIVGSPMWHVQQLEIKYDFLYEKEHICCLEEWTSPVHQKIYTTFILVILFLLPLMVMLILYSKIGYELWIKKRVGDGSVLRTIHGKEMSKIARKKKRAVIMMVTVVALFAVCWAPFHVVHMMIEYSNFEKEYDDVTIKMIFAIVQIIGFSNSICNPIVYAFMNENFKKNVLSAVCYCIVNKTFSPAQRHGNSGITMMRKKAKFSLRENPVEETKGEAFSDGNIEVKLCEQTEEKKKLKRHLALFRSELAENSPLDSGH

Sequence of GPR103 alanine mutant of Y29^N-term (human) (Q96P65 other isoform, or with tags, fused parts or gaps mutant): as the sequence (Q96P65 whole entry C98A) above, with Y29A, A98C counted along it
Sequence of GPR103 Q318^7.39A (human) (Q96P65 whole entry Q318A): as the sequence (Q96P65 whole entry C98A) above, with A98C, Q318A counted along it
Sequence of GPR103 alanine mutant of F11^N-term (human) (Q96P65 other isoform, or with tags, fused parts or gaps mutant): as the sequence (Q96P65 whole entry C98A) above, with F11A, A98C counted along it
Sequence of GPR103 E203^ECL2A (human) (Q96P65 whole entry E203A): as the sequence (Q96P65 whole entry C98A) above, with A98C, E203A counted along it
Sequence of GPR103 alanine mutant of F25^N-term (human) (Q96P65 other isoform, or with tags, fused parts or gaps mutant): as the sequence (Q96P65 whole entry C98A) above, with F25A, A98C counted along it
Sequence of GPR103 E297^6.59A (human) (Q96P65 whole entry E297A): as the sequence (Q96P65 whole entry C98A) above, with A98C, E297A counted along it
Sequence of GPR103 Q125^3.32 mutant (human) (Q96P65 whole entry, change not shown): as the sequence (Q96P65 whole entry C98A) above, with A98C counted along it
Sequence of GPR103 T102^2.61 mutant (human) (Q96P65 whole entry, change not shown): as the sequence (Q96P65 whole entry C98A) above, with A98C counted along it

EDEGSEATGFLPAAGEKTSGPLGNLAEELNGYSRKKGGFSFRF [QRFP43, pyroglutamylated RF-amide peptide, 43-amino acid RF-amide peptide with a pyroglutamylated N-terminus]
activity for GPR103 (in words) ([1]; ref [5]–[7]): specific activity for GPR103
food intake and fat mass (in words) ([2]; QRFP administration, ref [11]): increased food intake and fat mass
glucose-induced insulin release (in words) ([2]; QRFP administration, ref [11]): reducing glucose-induced insulin release
osteopenia and nociception (in words) ([2]; QRFP administration, ref [11]): may also cause osteopenia and facilitate nociception
orexigenic activity (in words) ([2]; ref [5]–[7]): orexigenic activity
hypothermia and metabolism (in words) ([2]; ref [46]): capable of inducing an extended state of hypothermia and reduced metabolism

GGFSFRF [C-terminal heptapeptide, C-terminal heptapeptide of QRFP26 (GGFSFRF)]
GPR103 activation (in words) ([1]; ref [27],[28]): sufficient to activate GPR103
affinity (in words) ([1]; ref [27],[28]): reduced affinity

QRFP26 (from UniProt P83859 91-136) (peptide)
QRFP26-induced activation of GPR103, TGFα shedding assay (reduction of potency against wild type) [3]: > 3 fold
QRFP26-induced activation of GPR103, TGFα shedding assay (reduction of potency against wild type) [4]: 3 fold
QRFP26-induced activation of GPR103, TGFα shedding assay (reduction of potency against wild type) [5]: 10 fold
QRFP26-induced activation of GPR103, TGFα shedding assay (reduction of potency against wild type) [6]: > 3 fold
QRFP26-induced activation of GPR103, TGFα shedding assay (reduction of potency against wild type) [7]: > 3 fold
QRFP26-induced activation of GPR103, TGFα shedding assay (reduction of potency against wild type) [8]: 10 fold
QRFP26-induced activation of GPR103, TGFα shedding assay (reduction of potency against wild type) [9]: 10 fold
QRFP26-induced activation of GPR103, TGFα shedding assay (reduction of potency against wild type) [10]: 10 fold
QRFP26-induced activation of GPR103, TGFα shedding assay (reduction of potency against wild type) [11]: 3 fold

— article PMC11187126, “Structure and dynamics of the pyroglutamylated RF-amide peptide QRFP receptor GPR103” (Nature Communications, 2024)
